From patent publication US11278600B2, “Human alpha-galactosidase variants” (Codexis, Inc., priority 2014, dated 2022)

Experiments:
Format in all cases: biochemical
[1] = HTP-analysis of supernatants pretreated with base (MUGal hydrolysis); details: for Relative Activity of GLA Variants After Challenge at pH 9.65: activity of the variant/activity of Rd4BB (SEQ ID NO: 15); for Relative Activity of GLA Variants After Challenge at pH 9.7: activity of the variant/activity of Rd3BB (SEQ ID NO: 13)
How it was run: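 Fluorescence of released 4-MU (Ex 355 nm, Em 448 nm) after carbonate quench reports MUGal hydrolysis by GLA variants secreted from INVSc1 yeast. Before the acidic (pH 4.3-4.8) 30-180 min reaction at 37° C, supernatants had been pre-incubated at pH 7.0-9.7 for 1-18 h at 37° C.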

[2] = HTP-analysis of yeast culture supernatants, no challenge (MUGal hydrolysis)
How it was run: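 GLA variants were expressed in INVSc1 yeast grown in SD-Ura broth with glucose at 30° C., and culture supernatants were collected after 66-84 h. Supernatant was mixed with McIlvaine buffer pH 4.8 and MUGal (2 mM stock) in 50 mM citrate, 200 mM KCl, pH 4.6, incubated at 37° C. for 30-180 minutes, then quenched with sodium carbonate.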

[3] = HTP-analysis of supernatants pretreated with acid (MUGal hydrolysis); details: challenge at pH 3.7
How it was run: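 GLA variants were secreted from INVSc1 yeast grown 66-84 h at 30° C. in SD-Ura with 2% glucose; supernatants were mixed with McIlvaine buffer pH 3.3-4.3 and held at 37° C. for 1-3 h. Residual activity on MUGal at pH 4.8 was then measured by fluorescence.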

[4] = activity of the variant/activity of Rd4BB (SEQ ID NO: 15)
[5] = activity of the variant/activity of Rd3BB (SEQ ID NO: 13)

Molecule | Relative Activity of GLA Variants After Challenge at pH 9.65 [1] | Relative Activity of GLA Variants After No Challenge (NC) [2, 4] | Relative Activity of GLA Variants After Challenge at pH 3.7 [3, 4] | Relative Activity of GLA Variants After Challenge at pH 9.7 [1] | Relative Activity of GLA Variants After No Challenge (NC) [2, 5] | Relative Activity of GLA Variants After Challenge at pH 3.7 [3, 5]
387 (protein, Synthetic Polypeptide sequence of Variant No. 387 of mature Human GLA) LDNGLARTPTMGWLHWERFMCNLDCQEEPDSCISEKLFMEMAERMVSEGWKDAGYEYLCIDDCWMAPQRDSEGRLQADPQRFPHGIRQLANYTHSKGLKLGIYADVGNKTCAGFPGSFGYYDIDAQTFADWGVDLLKFDGCYCDSLENLADGYKHMSLALNRTGRSIVYSCEWPLYMWPFQKPNYTEIRQYCNHWRNFADIDDSWKSIKSILDWTSRNQERIVDVAGPGGWNDPDMLVIGNFGLSWDQQVTQMALWAIMAAPLFMSNDLRHISPQAKALLQDKDVIAINQDPLGKQGYQLRKGDNFEVWERPLSGDAWAVAIINRQEIGGPRSYTIPVASLGKGVACNPACFITQLLPVKRQLGFYNWTSRLKSHINPTGTVLLQLENTMQMSLKDLL | − (<0.5 relative activity over Rd4BB (SEQ ID NO: 15)) | + (0.5 to 1.5 relative activity over Rd4BB (SEQ ID NO: 15)) | + (0.5 to 1.5 relative activity over Rd4BB (SEQ ID NO: 15)) |  |  | 
360 (protein, Synthetic Polypeptide sequence of Variant No. 360 of mature Human GLA) LDNGLARTPTMGWLHWERFMCNLDCQEEPDSCISEKLFMEMAEEMVSEGWKDAGYEYLCIDDCWMAPQRDSEGRLQADPQRFPHGIRQLANYVHSKGLKLGIYADVGNKTCAGFPGSFGYYDIDAQTFADWGVDLLKFDGCYCDSLENLADGYKHMSLALNRTGRSIVYSCEWPLYMWPFQKPNYTEIRQYCNHWRNFADIDDSWASIKSILDWTSRNQERIVDVAGPGGWNDPDMLVIGNFGLSWDQQVTQMALWAIMAAPLFMSNDLRHISPQAKALLQDKDVIAINQDPLGKQGYQLRKGDNFEVWERPLSGDAWAVAIINRQEIGGPRSYTIPVASLGKGVACNPACFITQLLPVKRQLGFYNWTSRLKSHINPTGTVLLQLENTMQMSLKDLL | + (0.5 to 1.5 relative activity over Rd4BB (SEQ ID NO: 15)) | + (0.5 to 1.5 relative activity over Rd4BB (SEQ ID NO: 15)) | + (0.5 to 1.5 relative activity over Rd4BB (SEQ ID NO: 15)) |  |  | 
389 (protein, Synthetic Polypeptide sequence of Variant No. 389 of mature Human GLA) LDNGLARTPTMGWLHWERFMCNLDCQEEPDSCISEKLFMEMAERMVSEGWKDAGYEYLCIDDCWMAPQRDSEGRLQADPQRFPHGIRQLANYSHSKGLKLGIYADVGNKTCAGFPGSFGYYDIDAQTFADWGVDLLKFDGCYCDSLENLADGYKHMSLALNRTGRSIVYSCEWPLYMWPFQKPNYTEIRQYCNHWRNFADIDDSWKSIKSILDWTSRNQERIVDVAGPGGWNDPDMLVIGNFGLSWDQQVTQMALWAIMAAPLFMSNDLRHISPQAKALLQDKDVIAINQDPLGKQGYQLRKGDNFEVWERPLSGDAWAVAIINRQEIGGPRSYTIPVASLGKGVACNPACFITQLLPVKRQLGFYNWTSRLKSHINPTGTVLLQLENTMQMSLKDLL | − (<0.5 relative activity over Rd4BB (SEQ ID NO: 15)) | + (0.5 to 1.5 relative activity over Rd4BB (SEQ ID NO: 15)) | + (0.5 to 1.5 relative activity over Rd4BB (SEQ ID NO: 15)) |  |  | 
388 (protein, Synthetic Polypeptide sequence of Variant No. 388 of mature Human GLA) LDNGLARTPTMGWLHWERFMCNLDCQEEPDSCISEKLFMEMAERMVSEGWKDAGYEYLCIDDCWMAPQRDSEGRLQADPQRFPHGIRQLANYLHSKGLKLGIYADVGNKTCAGFPGSFGYYDIDAQTFADWGVDLLKFDGCYCDSLENLADGYKHMSLALNRTGRSIVYSCEWPLYMWPFQKPNYTEIRQYCNHWRNFADIDDSWKSIKSILDWTSRNQERIVDVAGPGGWNDPDMLVIGNFGLSWDQQVTQMALWAIMAAPLFMSNDLRHISPQAKALLQDKDVIAINQDPLGKQGYQLRKGDNFEVWERPLSGDAWAVAIINRQEIGGPRSYTIPVASLGKGVACNPACFITQLLPVKRQLGFYNWTSRLKSHINPTGTVLLQLENTMQMSLKDLL | + (0.5 to 1.5 relative activity over Rd4BB (SEQ ID NO: 15)) | + (0.5 to 1.5 relative activity over Rd4BB (SEQ ID NO: 15)) | − (<0.5 relative activity over Rd4BB (SEQ ID NO: 15)) |  |  | 
547 (protein, Synthetic Polypeptide sequence of Variant No. 547 of mature Human GLA) LDNGLARTPTMGWLHWERFMCNLDCQEEPDSCISEKLFMEMAERMVSEGWKDAGYEYLCIDDCWMAPQRDSEGRLQADPQRFPHGIRQLANHVHSKGLKLGIYADVGNKTCAGFPGSFGYYDIDAQTFADWGVDLLKFDGCYCDSLENLADGYKHMSLALNRTGRSIVYSCEWPLYMWPFQKPNYTEIRQYCNHWRNFADIDDSWASIKSILDWTSRNQERIVDVAGPGGWNDPDMLVIGNFGLSWDQQVTQMALWAIMAAPLFMSNDLRHISPQAKALLQDKDVIAINQDPLGLQGYQLRKGDNFEVWERPLSGDAWAVAIINRQEIGGPRSYTIPVASLGKGVACNPACFITQLLPVKRQLGFYNWTSRLKSHINPTGTVLLQLENTMQMSLKDLL |  |  |  | ++ (++ = >5 to 10 relative activity over Rd3BB (SEQ ID NO: 13)) | + (+ = 1.5 to 5 relative activity over Rd3BB (SEQ ID NO: 13)) | + (+ = 1.5 to 5 relative activity over Rd3BB (SEQ ID NO: 13))
390 (protein, Synthetic Polypeptide sequence of Variant No. 390 of mature Human GLA) LDNGLARTPTMGWLHWERFMCNLDCQEEPDSCISEKLFMEMAERMVSEGWKDAGYEYLCIDDCWMAPQRDSEGRLQADPQRFPHGIRQLANYQHSKGLKLGIYADVGNKTCAGFPGSFGYYDIDAQTFADWGVDLLKFDGCYCDSLENLADGYKHMSLALNRTGRSIVYSCEWPLYMWPFQKPNYTEIRQYCNHWRNFADIDDSWKSIKSILDWTSRNQERIVDVAGPGGWNDPDMLVIGNFGLSWDQQVTQMALWAIMAAPLFMSNDLRHISPQAKALLQDKDVIAINQDPLGKQGYQLRKGDNFEVWERPLSGDAWAVAIINRQEIGGPRSYTIPVASLGKGVACNPACFITQLLPVKRQLGFYNWTSRLKSHINPTGTVLLQLENTMQMSLKDLL | − (<0.5 relative activity over Rd4BB (SEQ ID NO: 15)) | + (0.5 to 1.5 relative activity over Rd4BB (SEQ ID NO: 15)) | + (0.5 to 1.5 relative activity over Rd4BB (SEQ ID NO: 15)) |  |  | 
548 (protein, Synthetic Polypeptide sequence of Variant No. 548 of mature Human GLA) LDNGLARTPTMGWLHWERFMCNLDCQEEPDSCISEKLFMEMAERMVSEGWKDAGYEYLCIDDCWMAPQRDSEGRLQADPQRFPHGIRQLANHVHSKGLKLGIYADVGNKTCAGFPGSFGYYDIDAQTFADWGVDLLKFDGCYCDSLENLADGYKHMSLALNRTGRSIVYSCEWPLYMWPFQKPNYTEIRQYCNHWRNFADIDDSWASIKSILDWTSRNQERIVDVAGPGGWNDPDMLVIGNFGLSWDQQVTQMALWAIMAAPLFMSNDLRHISPQAKALLQDKDVIAINQDPLGNQGYQLRKGDNFEVWERPLSGDAWAVAIINRQEIGGPRSYTIPVASLGKGVACNPACFITQLLPVKRQLGFYNWTSRLKSHINPTGTVLLQLENTMQMSLKDLL |  |  |  | ++ (++ = >5 to 10 relative activity over Rd3BB (SEQ ID NO: 13)) | + (+ = 1.5 to 5 relative activity over Rd3BB (SEQ ID NO: 13)) | +++ (+++ = >10 relative activity over Rd3BB (SEQ ID NO: 13))
549 (protein, Synthetic Polypeptide sequence of Variant No. 549 of mature Human GLA) LDNGLARTPTMGWLHWERFMCNLDCQEEPDSCISEKLFMEMAERMVSEGWKDAGYEYLCIDDCWMAPQRDSEGRLQADPQRFPHGIRQLANHVHSKGLKLGIYADVGNKTCAGFPGSFGYYDIDAQTFADWGVDLLKFDGCYCDSLENLADGYKHMSLALNRTGRSIVYSCEWPLYMWPFQKPNYTEIRQYCNHWRNFADIDDSWASIKSILDWTSRNQERIVDVAGPGGWNDPDMLVIGNFGLSWDQQVTQMALWAIMAAPLFMSNDLRHISPQAKALLQDKDVIAINQDPLGQQGYQLRKGDNFEVWERPLSGDAWAVAIINRQEIGGPRSYTIPVASLGKGVACNPACFITQLLPVKRQLGFYNWTSRLKSHINPTGTVLLQLENTMQMSLKDLL |  |  |  | ++ (++ = >5 to 10 relative activity over Rd3BB (SEQ ID NO: 13)) | + (+ = 1.5 to 5 relative activity over Rd3BB (SEQ ID NO: 13)) | ++ (++ = >5 to 10 relative activity over Rd3BB (SEQ ID NO: 13))
